Reference: US8688427B2, “Enzyme catalysts for diels-alder reactions” (University of Washington, priority 2008, dated 2014)

Tests used:
[1] = tested on: Diels-Alderase DA_20_10, variant of DA_20_00 (Loligo vulgaris diisopropylfluorophosphatase scaffold, SEQ ID NO:2) with A21T/A74I/S271A/A173C/Q149R/A272N, SEQ …; assay: Kinetics of Diels-Alder reaction catalysed by optimized DA_20_10; assay type: biochemical; settings: 298K; PBS; 20 μM protein; error = 95% confidence interval; read-out: KM-dienophile
Protocol: (A) Dependence of reaction velocity on diene concentration for different fixed dienophile concentrations. The diene concentration was varied from 3.0 to 0.18 mM with a fixed concentration of 100 mM (⋄), 66 mM (Δ), 44 mM (⋄), 30 mM (◯), 20 mM (◯), or 13 mM (●) dienophile (B) Dependence of reaction velocity on dienophile concentration for different fixed diene concentrations. The dienophile was varied from 100 to 13.0 mM with a fixed concentration of 3 mM (♦), 2 mM (▴), 1.3 mM (∇), 0.9 mM (Δ), 0.6 mM (⋄), 0.4 mM (□), 0.26 mM (◯), or 0.18 mM (●) […]. Reactions were carried out with 20 μM protein in PBS at 298 K.
(§1) The Diels-Alder reactions were performed in PBS, at 25° C., with 4% DMSO. The DMSO came from the diene, for which the stock solution (100 mM) was made in DMSO and always diluted such that the final reaction would contain 4% DMSO. After incubation of the desired amount of diene and dienophile in the presence or absence of the protein, time points were taken of the reaction (5 μL) and quenched in a solution of 80:20 acetonitrile:water with 0.1% formic acid and 1 mM Benzoic Acid (95 μL). This reaction was incubated for 5 minutes and then the precipitated protein filtered using a Millipore multiscreen solvinert filter plate (Product Number: MSRLN0450). 20 μL of the filtered quench solution was then injected and analyzed using a liquid chromatography-tandem mass spectroscopy (LC-MSMS) assay.
To summarize the optimization rounds, residues contacting the transition state in DA—20—00 were mutated individually to sets of residues predicted to retain or improve transition state binding and bolster the two catalytic residues. […] Three of the mutations (FIG. 6C) likely improve the packing around the transition state (A741, A21 T) or catalytic glutamine (A173C). Two of the mutations likely improve the overall electrostatic complementarity with the bound substrates and transition state: Q149R hydrogen bonds to the carboxylate on the diene and S271A makes the dienophile environment more non polar.
The kinetics of the DA—20—10 catalyzed reaction was characterized by measuring the dependence of the reaction velocity on the concentration of both diene and dienophile. The effective molarity (kcat/kuncat) of DA—20—10 is 100 M, and the rate enhancement (kcat/(kuncat*KM_diene)) in the presence of saturating dienophile and limiting diene is 1.0×10^5. At high substrate concentrations DA—20—10 proceeds for more than 30 turnovers before the enzyme loses activity. At higher enzyme concentrations more than 80% of the diene substrate is converted to product.
The errors represent the calculated 95% confidence interval. The parameter a describes the cooperativity of binding between the two substrates: a value greater than one indicates negative cooperativity, whereas a value lower then one indicates positive cooperativity. α could not be determined for DA—20—00. Kinetic parameters for catalytic antibodies 7D4 and 4D5 were taken from (10, 17).

[2] = tested on: catalytic antibody mAb 7D4; settings: 310K; read-out: KM-dienophile; cited from earlier work
[3] = tested on: catalytic antibody mAb 4D5; settings: 310K; read-out: KM-dienophile; cited from earlier work
catalytic antibody 1E9 = settings: with N-ethyl maleimide as second substrate; cited from earlier work
[4] = Diels-Alder activity assay with purified protein, LC-MSMS product detection; assay type: biochemical; settings: PBS
Protocol: The observed velocity for each mutant was normalized by the velocity of DA—20—00 in order to determine the effective rate enhancement conferred by each mutation. The reactions were done at 1 mM diene, and 10 mM dienophile, PBS, 298K, and 100 μM protein.
Mutations showing enhanced activity on DA—20—04 were sequenced, grown large scale, and assayed. The assay was done at 0.1 mM dieine, 3 mM dienophile, PBS, 298K, and 20 μM protein.
as §1
A total of 43 variants were assayed using the standard activity assay. The observed activities are described in Table 2. In Table 2, the Expression column provides the number of times the mutant was expressed; the Observed column reports the raw signal level out of the mass-spec for the product (the Observed column is not normalized nor background corrected); the Concentration column provides the concentration of the protein after large-scale expression. […]

[5] = Plate assay of crude cell lysate, second round of active site optimization; assay type: biochemical; settings: Mutations Recombined; single mutations on DA_20_04; Neg_Control 0, Pos_Control 1
Protocol: Since it was unreasonable to prepare the 176 enzyme variants in large scale, a plate assay was developed in which colonies directly from a Kunkel mutagenesis (8) reaction could be screened. Kunkel mutagenesis reactions were transformed directly into BL21(DE3)™ (Invitrogen) in order to generate each of the desired mutants. Four colonies from each plated reaction was picked and grown at 37° C. in 0.5 mL of LB-Kanamycin overnight. […]. This culture was grown for 2-3 hours at 37° C., after which 50 μL of 10 mM IPTG was added to each well (0.5 mM Final) in order to induce expression. The cells were then grown for 24 hours at 18° C., harvested, and stored at −20° C. until ready for assaying. To assay, crude cell lysate was prepared by resuspending the cells in 500 uL of PBS and lysing through 3 freeze/thaw cycles (15 minutes at −80° C., 40 minutes at 25° C.), followed by centrifugation at 4000 rpm for 30 minutes. […] Samples from each reaction were then quenched and product detected using a liquid chromatography-tandem mass spectroscopy.
To help remove some of this noise, samples showing WT activity were discarded if at least 2 of the other colonies picked from that Kunkel reaction did show an effect on activity (either greater or less than WT). […] The relative effect of each mutation was calculated. […]

[6] = Production run and effects of knocking out the catalytic residues; assay type: biochemical; settings: for decrease of catalytic activity on mutation of a catalytic residue of DA_20_10: relative to DA_20_10
Protocol: The reaction was carried out in 1 mM diene, 50 mM dienophile, 200 μM enzyme, in PBS at 298K. The proteins assayed are DA—20—10 (υ), Y121F (▴), Q195E (x), and tela scaffold (*), uncatalyzed (λ).
To determine whether the observed activity depends on the designed active site, we investigated the contributions of the designed catalytic residues in DA—20—10 to catalysis. Glutamine 195 was mutated into a glutamate (Q195E) and tyrosine 121 was mutated into a phenylalanine (Y121F). We had originally incorporated a glutamine rather than a glutamate at this position, despite the fact that the carboxylate should make a stronger hydrogen bond with the diene carbamate. This hydrogen bond should increase the energy of the diene HOMO (and thus decrease the energy gap with the dienophile LUMO), and more greatly stabilize the transition state. However, we were concerned that the substantial free energy cost of desolvating the carboxylate would considerably reduce binding affinity for the diene. […] The Y121F mutation decreases catalytic activity by 27-fold, consistent with the removal of a hydrogen bond that contributes to dienophile binding, stabilizes the dienophile LUMO, and is enhanced in the transition state.
Timepoints were taken and measured as previously described over a period of 60 hours.

C=CC(=O)N(C)C [dienophile, N,N-dimethylacrylamide]
Km [1]: 58.1 ± 14 mM
Km [2]: 1.7 mM
Km [3]: 5.9 mM

O=S1(=O)C(Cl)=C(Cl)C(Cl)=C1Cl [tetrachlorothiophene dioxide]
catalytic proficiency (catalytic antibody 1E9): 10^7 M^−1
effective molarity (catalytic antibody 1E9): 10^3 M

B1: DA_20_00: original Diels-Alder enzyme design on diisopropylfluorophosphatase scaffold (PDB-ID 1E1A) (protein)
chain: MEIPVIEPLFTKVTEDIPGAAGPVFDKNGDFYIVAPYVEVNGKPAGEILRIDLKTGKKTVICKPEVNGYGGIPAGCQCDRDANQLFVADMRLGLLVVQTDGTFEEIAKKDSEGRRMQGCAYCAFDYEGNLWITAPAGEVAPADFTISLQEKFGSIYCFTTDGQMIQVDTAFQAPAGIAVRHMNDGRPYQLIVAEQPTKKLWSYDIKGPAKIENKKVWGHIPGTHKGGAAGMDFDEDNNLLVANWGSSHIEVFGPDGGQPKMRIRCPFEKPSALHFKPQTKTIFVTEHENNAVWKFEWQRNGKKQYCETLKFGIFGSLEHHHHHH
modifications: Enzyme catalyst for Diels-Alder reaction
activity versus background reaction (in words) ([4]; 25° C., 4% DMSO): increased activity over the background reaction

B2: DA_20_04: DA_20_00 triple mutant A21T, A74I, S271A (protein)
chain: MEIPVIEPLFTKVTEDIPGATGPVFDKNGDFYIVAPYVEVNGKPAGEILRIDLKTGKKTVICKPEVNGYGGIPIGCQCDRDANQLFVADMRLGLLVVQTDGTFEEIAKKDSEGRRMQGCAYCAFDYEGNLWITAPAGEVAPADFTISLQEKFGSIYCFTTDGQMIQVDTAFQAPAGIAVRHMNDGRPYQLIVAEQPTKKLWSYDIKGPAKIENKKVWGHIPGTHKGGAAGMDFDEDNNLLVANWGSSHIEVFGPDGGQPKMRIRCPFEKPAALHFKPQTKTIFVTEHENNAVWKFEWQRNGKKQYCETLKFGIFGSLEHHHHHH
modifications: Enzyme catalyst for Diels-Alder reaction
notes: DA_20_00 triple mutant A21T, A74I, S271A
product formed per hour ([4]; 0.1 mM diene, 3 mM dienophile, 298K, 20 μM protein): 21.9 nM of product/hour
rate enhancement over DA_20_00 (velocity normalized by velocity of DA_20_00) ([4]; 1 mM diene, 10 mM dienophile, 298K, 100 μM protein): 20.5 fold
Effect on [5]: 1

B3: Y121F: DA_20_10 with tyrosine 121 mutated into a phenylalanine (protein)
chain: MEIPVIEPLFTKVTEDIPGAAGPVFDKNGDFYIVAPYVEVNGKPAGEILRIDLKTGKKTVICKPEVNGYGGIPAGCQCDRDANQLFVADMRLGLLVVQTDGTFEEIAKKDSEGRRMQGCAFCAFDYEGNLWITAPAGEVAPADFTISLQEKFGSIYCFTTDGQMIQVDTAFQAPAGIAVRHMNDGRPYQLIVAEQPTKKLWSYDIKGPAKIENKKVWGHIPGTHKGGAAGMDFDEDNNLLVANWGSSHIEVFGPDGGQPKMRIRCPFEKPSALHFKPQTKTIFVTEHENNAVWKFEWQRNGKKQYCETLKFGIFGSLEHHHHHH
decrease of catalytic activity on mutation of a catalytic residue of DA_20_10 [6]: 27 fold

B4: Q195E: DA_20_10 with glutamine 195 mutated into a glutamate (protein)
chain: MEIPVIEPLFTKVTEDIPGAAGPVFDKNGDFYIVAPYVEVNGKPAGEILRIDLKTGKKTVICKPEVNGYGGIPAGCQCDRDANQLFVADMRLGLLVVQTDGTFEEIAKKDSEGRRMQGCAYCAFDYEGNLWITAPAGEVAPADFTISLQEKFGSIYCFTTDGQMIQVDTAFQAPAGIAVRHMNDGRPYQLIVAEEPTKKLWSYDIKGPAKIENKKVWGHIPGTHKGGAAGMDFDEDNNLLVANWGSSHIEVFGPDGGQPKMRIRCPFEKPSALHFKPQTKTIFVTEHENNAVWKFEWQRNGKKQYCETLKFGIFGSLEHHHHHH
decrease of catalytic activity on mutation of a catalytic residue of DA_20_10 [6]: 450 fold

B5: wild-type scaffold: diisopropylfluorophosphatase from Loligo vulgaris (PDB-ID 1E1A) (protein, listed as Loligo vulgaris)
chain: MEIPVIEPLFTKVTEDIPGAEGPVFDKNGDFYIVAPEVEVNGKPAGEILRIDLKTGKKTVICKPEVNGYGGIPAGCQCDRDANQLFVADMRLGLLVVQTDGTFEEIAKKDSEGRRMQGCNDCAFDYEGNLWITAPAGEVAPADYTRSMQEKFGSIYCFTTDGQMIQVDTAFQFPNGIAVRHMNDGRPYQLIVAETPTKKLWSYDIKGPAKIENKKVWGHIPGTHEGGADGMDFDEDNNLLVANWGSSHIEVFGPDGGQPKMRIRCPFEKPSNLHFKPQTKTIFVTEHENNAVWKFEWQRNGKKQYCETLKFGIF
activity (in words) [6]: did not show any measurable activity
